In publication doi:10.1101/2023.10.30.564768, “The LexA-RecA* structure reveals a lock-and-key mechanism for SOS activation” (bioRxiv, 2023):
Where a chain is given by its changes, count along the chain named. Names may count otherwise.

Experiments:
[1] = target: T1, His-RecA WT, activated as RecA* (nucleoprotein filament on ssDNA with ATPγS) (E. coli, UniProt P0A7G6 1-353); assay: fluorescence polarisation; competition, fluorescence anisotropy; unlabeled LexA K156A or QM (140 nM to 18.3 µM) spiked into pre-formed RecA* alongside LexA Q161δ; three-parameter dose-response fit; settings: both partners purified
T1 construct: RecA, E. coli; source: E. coli ΔrecA BLR(DE3), purified (cobalt resin, ammonium sulfate, heparin); not shown: poly-His, N-terminal, kept
T1 sequence (looked up): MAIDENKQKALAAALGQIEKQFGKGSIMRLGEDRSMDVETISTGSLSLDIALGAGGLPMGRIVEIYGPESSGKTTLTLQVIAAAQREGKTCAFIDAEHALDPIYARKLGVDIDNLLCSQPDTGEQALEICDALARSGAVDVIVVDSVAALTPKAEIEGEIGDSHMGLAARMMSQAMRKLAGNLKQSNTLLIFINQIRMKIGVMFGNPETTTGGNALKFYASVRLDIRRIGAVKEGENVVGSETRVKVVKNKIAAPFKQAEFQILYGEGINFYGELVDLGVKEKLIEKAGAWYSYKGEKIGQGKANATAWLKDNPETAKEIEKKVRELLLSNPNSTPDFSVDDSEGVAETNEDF

[2] = target: the molecule itself; assay: cryo-EM structure; RecA* pre-formed from 5 µM His-RecA WT and 1 µM GGT 90-mer ssDNA in 70 mM Tris-HCl pH 7.5, 150 mM NaCl, 1 mM MgCl2, 2 mM TCEP, 0.25 mM ATPγS, 20 min; LexA K156A added to 25 µM, 30 min, room temperature

B1: His-LexA K156A (natural protein, E. coli, UniProt P0A7C2 1-202, looked up)
chain: MKALTARQQEVFDLIRDHISQTGMPPTRAEIAQRLGFRSPNAAEEHLKALARKGVIEIVSGASRGIRLLQEEEEGLPLVGRVAAGEPLLAQQHIEGHYQVDPSLFKPNADFLLRVSGMSMKDIGIMDGDLLAVHKTQDVRNGQVVVARIDDEVTVARLKKQGNKVELLPENSEFKPIVVDLRQQSFTIEGLAVGVIRNGDWL
notes: LexA repressor, E. coli; source: E. coli BL21(DE3), purified (cobalt resin, heparin)
binding result [1]: binds

B2: untagged LexA K156A (full-length, catalytically inactive) (natural protein, E. coli, UniProt P0A7C2 1-202, looked up)
chain: B1 chain
notes: LexA repressor, E. coli; Used for cryo-EM only; source: E. coli BL21(DE3), purified (cobalt resin, heparin; His-tag removed with thrombin); not shown: poly-His, N-terminal, cleaved
binding result [2]: binds

B3: LexA quad-mutant (QM): L89P, Q92W, E152A, K156A (natural protein, E. coli, UniProt P0A7C2 1-202, looked up)
chain: B1 chain with L89P, Q92W, E152A
notes: LexA repressor, E. coli; also called LexA QM; hyperactive LexA variant; source: E. coli BL21(DE3), purified (cobalt resin, heparin)
fold weaker binding relative to LexA K156A [1]: ~8 fold
